How the values were obtained:
Shh pathway = Shh pathway expression (Gli1, N-Myc; Western Blot, real time Q-PCR) in GCP neurosphere cultures; assay type: cell-based, mouse; settings: factor alone, FIG. 4
Description: (§1) After surgical resection from a mouse on the seventh day of postnatal life (P7) the cerebellum was mechanically shredded in a buffer containing HBSS, glucose and antibiotics, and DNase (at concentrations as defined above) and the individual cells thus obtained were counted and plated at a dilution of 16000 cells/cm^2 on a medium composed of DMEM-F12, glucose, Vitamin A-free B27, insulin, NALC, heparin, antibiotics (at concentrations as defined above) and SAG (200 nM) and EGF ([…]). On this medium the cells can be enriched and maintained for an unlimited time, after periodical dissociation of the spheres with Accutase® (2-3 times per week) and propagation by dilution (to prevent excessive growth and consequent death from nutrient deficiency and hypoxia). The reaction conditions were as described above.

GCP cells = assay: Clonogenicity / long-term propagation of GCP neurosphere cultures; assay type: cell-based, mouse
Description: as §1

B1: EGF: Epidermal Growth Factor (protein, UniProt P01133 23-1207, looked up)
Pro-epidermal growth factor: PQHWSCPEGTLAGNGNSTCVGPAPFLIFSHGNSIFRIDTEGTNYEQLVVDAGVSVIMDFHYNEKRIYWVDLERQLLQRVFLNGSRQERVCNIEKNVSGMAINWINEEVIWSNQQEGIITVTDMKGNNSHILLSALKYPANVAVDPVERFIFWSSEVAGSLYRADLDGVGVKALLETSEKITAVSLDVLDKRLFWIQYNREGSNSLICSCDYDGGSVHISKHPTQHNLFAMSLFGDRIFYSTWKMKTIWIANKHTGKDMVRINLHSSFVPLGELKVVHPLAQPKAEDDTWEPEQKLCKLRKGNCSSTVCGQDLQSHLCMCAEGYALSRDRKYCEDVNECAFWNHGCTLGCKNTPGSYYCTCPVGFVLLPDGKRCHQLVSCPRNVSECSHDCVLTSEGPLCFCPEGSVLERDGKTCSGCSSPDNGGCSQLCVPLSPVSWECDCFPGYDLQLDEKSCAASGPQPFLLFANSQDIRHMHFDGTDYGTLLSQQMGMVYALDHDPVENKIYFAHTALKWIERANMDGSQRERLIEEGVDVPEGLAVDWIGRRFYWTDRGKSLIGRSDLNGKRSKIITKENISQPRGIAVHPMAKRLFWTDTGINPRIESSSLQGLGRLVIASSDLIWPSGITIDFLTDKLYWCDAKQSVIEMANLDGSKRRRLTQNDVGHPFAVAVFEDYVWFSDWAMPSVMRVNKRTGKDRVRLQGSMLKPSSLVVVHPLAKPGADPCLYQNGGCEHICKKRLGTAWCSCREGFMKASDGKTCLALDGHQLLAGGEVDLKNQVTPLDILSKTRVSEDNITESQHMLVAEIMVSDQDDCAPVGCSMYARCISEGEDATCQCLKGFAGDGKLCSDIDECEMGVPVCPPASSKCINTEGGYVCRCSEGYQGDGIHCLDIDECQLGEHSCGENASCTNTEGGYTCMCAGRLSEPGLICPDSTPPPHLREDDHHYSVRNSDSECPLSHDGYCLHDGVCMYIEALDKYACNCVVGYIGERCQYRDLKWWELRHAGHGQQQKVIVVAVCVVVLVMLLLLSLWGAHYYRTQKLLSKNPKNPYEESSRDVRSRRPADTEDGMSSCPQPWFVVIKEHQDLKNGGQPVAGEDGQAADGSMQPTSWRQEPQLCGMGTEQGCWIPVSSDKGSCPQVMERSFHMPSYGTQTLEGGVEKPHSLLSANPLWQQRALDPPHQMELTQ
modifications: Pro-epidermal growth factor
Shh pathway
  expression of markers typical of GCP: does not express the markers typical of GCP
GCP cells
  proliferative power of GCP cells: ensures its unlimited proliferative power
